Measurements published in patent publication US20250346678A1 (published 2025).

B1: anti-PD-L1 antibody clone 6 (antibody, V domains shown)
VH: QVQLVQSGAEVKKPGSSVKVSCKASGGTFRRYSISWVRQAPGQGLEWMGGIIPVFGAAKYAQKFQGRVTITADEFTSTAYMELSSLTSEDTAVYYCALSGDSDAFDIWGQGTMVTVSS
VL: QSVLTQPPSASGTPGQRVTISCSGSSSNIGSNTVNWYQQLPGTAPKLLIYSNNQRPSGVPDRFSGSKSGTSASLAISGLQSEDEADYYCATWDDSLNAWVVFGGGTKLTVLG
B2: anti-PD-L1 antibody clone 32 (antibody, V domains shown)
VH: QVQLVQSGAKVKKPGSSVKVSCKASGGTFSSYAISWVRQAPGQGLEWMGRIIPILGIANYAQKFQGRVTITADKSTSTAYMELSSLRSEDTAVYYCARVVPGYSYGPFDYWGQGTTVTVSS
VL: QSALTQPASVSGSPGQSITISCTGTSNDVGSYNSVSWYQQHPGKAPKLVIYEVANRPSGVPDRFSGSKSGNTASLTISGLQAEDEADYYCSSYTSSSTLVFGGGTKLTVLG
B3: anti-OX40 antibody clone B19 (antibody, V domains shown)
VH: EVQLVESGGGLVKPGGSLRLSCAASGFTFSSYSMNWVRQAPGKGLEWVSSISSSSRYIYYADSVKGRFTISRDNAKNSLYLQMNSLRAEDTAVYYCARQNEDVAFGIWGQGTMVTVSS
VL: SYVLTQPPSVSVTPGKTARIACGGNNLESKIVSWYQQKPGQAPVLVIFYDTDRPSGISERFSGSNSGNTATLTISRVEAGDEADYYCQVWDSNSDHVIFGGGTKLTVLG

Legend:
[1] = target: T1, human PD-L1 IgG1 Fc chimera (human, UniProt Q9NZQ7 19-238); assay: competition ELISA; PD-1/PD-L1 blocking
[2] = target: T1, human PD-L1 IgG1 Fc chimera; assay: ELISA
[3] = target: T2, human OX40 IgG1 Fc chimera (human, UniProt P43489 29-214); assay: ELISA
T2 chain: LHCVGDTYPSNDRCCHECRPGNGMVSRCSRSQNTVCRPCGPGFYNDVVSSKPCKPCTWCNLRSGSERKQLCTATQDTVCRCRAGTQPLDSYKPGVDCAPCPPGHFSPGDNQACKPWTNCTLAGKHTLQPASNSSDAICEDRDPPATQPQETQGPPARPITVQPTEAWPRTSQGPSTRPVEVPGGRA

T1 sequence (Q9NZQ7 19-238, change not shown): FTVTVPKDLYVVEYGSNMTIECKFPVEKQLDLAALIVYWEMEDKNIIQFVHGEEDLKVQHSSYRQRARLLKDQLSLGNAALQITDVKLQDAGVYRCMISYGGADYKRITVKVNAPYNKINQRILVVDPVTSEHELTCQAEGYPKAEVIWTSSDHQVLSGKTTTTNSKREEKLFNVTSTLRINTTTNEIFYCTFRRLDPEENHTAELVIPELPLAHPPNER

Binder	IC50 [1]	EC50 [2]	EC50 [3]
B1	11.4 nM	0.082 nM	
B2		0.0348 nM	
B3			1.22 nM
